Data reported in the supplement of paper PMC9170038.

System: K4 kissing-loop RNA reporter
Assay: apparent KD of K4 kissing-loop reporter; higher = weaker reporter binding
Conditions: Eterna round: R107; input ligand: tryptophan 2.4 mM
Method: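 RNA-MaP round R107: designed RNA switches with theophylline, tryptophan, arginine or FMN aptamers are transcribed on-chip within common flanks. They are titrated with a labelled K4 kissing-loop RNA reporter in RNA-MaP buffer (100 mM Tris pH 7.5, 80 mM KCl, 4 mM MgCl2), without ligand or with the indicated ligand. Median apparent KD per design.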
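Note: bound reporter read as fluorescence of individual clusters on recovered sequencing chips by microscopy, with normalized cluster intensities fitted with a binding model.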

Sequence	apparent KD of K4 kissing-loop reporter
GGUGACUACCAGAGGUGAUGUAUAGUAUCGCGAGGACCGGUACGGCCGCCACUCGUGAAGAGAAAGGAGUGAUGUUCCGUAAUGG [Kazoo C8]	160 nM
AACGUAGCUACUGAUACCAGACUUUUUCUUGUAUAUUAGUCAAGUGAUGUUUGACUUUUAGUCCCUUGGCAGCAGUUGCUACGAA [JR_Nu_SSTheophyB_Sub028]	98.3 nM
CUUCGUAAGGGCCCAGUGAUGUUGGGCACUCGAGGACCGGUACGGCCGCCACUCGCUCCCUAAGUCGCGCGCGUGGGCCACCGCC [Rezariatra]	139 nM
UAACUCUUGCAGUGAUGUUGCAAGUAAGCUCAGGAUAUCAGGAAACUGAGAAGGGAGUAUCCUGAGCUUCUGCAAGAGCUCAGAA [KL-SSFMN-A5]	97.3 nM
UGUGCCAAAUGUGAUACCAGCUUCCUGCAGUGAUGUUGCAUACGAGUGAUGUUCGUCCGAGGCCCUUGGCAGCGCAGUCGUUUGA [Same State Theophylline B GF 27]	352 nM
GUAUCGCUAGGAGGAUAUUUCAAUCUGACUCUUUGAGUUAGUACGGAGUGAUGUUCCGAUUUACGGAAAGAAGGCCUAGUGAUAC [FMN B 11]	299 nM
UGACUGGAUGGAAGGAGCGCUAAACUCCUAGUGAUGUUAGGGAUAUGAGGCAAAGCCUCGAAGCAGGUAGGUCGCCAUCUAGUCU [FiskerMod 20 - Jieux - Same State - Arginine B]	156 nM
AUUCGAUCAGUGAUGUUGAUCAAAGUCGAAGGAGCGGACGAAAGUCCAGGUAGGUCGCGACUACAAGGUGUUAAGACACCUCGAA [Spvincent t9 mod #OpenEnded]	224 nM
AGAGUUAUGCGAGGAUAUGCGGUUAGUACUCAAAGAGUACUAACGGCAGAGUGAUGUUCUGUGAAAGCAGAAGGUGCAUAACUCA [Omei KL FMN B SS B v9]	1360 nM
GUUACGCAUGGAAGGAGCGCAUGCUCAACUAUAAGCUCAGUGAUGUUGAGCAUUUUUUUUUUGCAGGUAGGUCGCCAUGUGUAAC [Ex Arginine B K4 29]	217 nM
AGAUUCUUUUUUUUAUUUAAGUUUUCAGAAGGAGCGUGGUAGUACACAGGUAGGUCGCUGAAUUUUGGGCUAGUGAUGUUAGUUA [whbob_SS_Arginine_A_sa115]	135 nM
GGGUCAGUCUGAAGGAGCGGCCAGACAGAGCAGUGAUGUUGCUCCUAAUUUAAAAGUGUCGGCCAGGUAGGUCGCAGAUUGGCUC [Dienralais]	165 nM
CAGUUCUAUUCCGGUAGUGAUGUUACCAAGCGAGGACCGGUACGGCCGCCACUCGAGUGACAGACGUACUGGUAUCACCCGCUUC	142 nM
GGAUCCACCAGUGAUGUUGGAGAAAACUCCAAGGAUAUGACGAAAGUCAGAAGGUGGUAGACUGGACAAAGUCCGGUAGGAUCCA [FmnA10 A78]	193 nM
AUCUAGAUGCGAAGGAGCGCCUCAACGCGCUAUCUAUGGAGUGAUGUUCCAACGUAUGAGAGGCAGGUAGGUCGCGCAUCUAGAA [Arg B Ex t1]	115 nM
AGGCACGAGCAAGGAUAUCGAGUGGAGUGAUGUUCUGCCGACCCAGGACCGAAAGGUCCUGGGUCGCGAGAAGGUGCUCGUGCCU [#2 Same State - FMN A Attempt #8 (HarryS)]	711 nM
AAUUUAUAUUUGUUCUUCAAAUGUUCAGAAGGAGCGUGAAUUAUCACAGGUAGGUCGCUGGGCUAGUGAUGUUGGCUAUAUACUA [whbob_Ex_Arginine_A_2t126]	137 nM
GGCAGUGAUGUUGCCUAAGCAACGCAUGCGGAGGAUAUUCGUUCGGGAAGAAGGCCGCAGCGUUCUCUCGAGUGAUGUUCGAGUA [Same State FMN A GF 21]	166 nM
GUAUCAGUGAUGUUGGUAGGCGAGCGGGAUACCAGCCAAGACUCAGGCCCUUGGCAGCCCACAUAUCCCACGUAGAUAGUAGCUC [Same State - Theophylline A (Freestyle 15)]	133 nM
UUGUAAAAGUCGGCCGCCACUCCGGGCCCUAUAAAUGGGCGCAGUGAUGUUGCGGCUAGGCCUCUGAGGACCGGGACUUUAUAGC [Xeismaarbe]	201 nM
ACGUCCGGAUUGAUCGUGGGCAUGGUCGAUACCAGUAGUUUAAUCUACCCUUGGCAGCGACAUGAGUGAUGUUCAUGUGCGAUGA [KL-XTheo-A7 #analogue]	185 nM
UUUGGAUUGCGCGAAGAGUGCAAGCGCCAACGAGGACCGGUACGGCCGCCACUCGCGGAGGAGUCCAGUGAUGUUGGACGGCCCG [Laraones]	185 nM
AAGGCAAUUCGAGGAUAUCACAUACACUCCUUGAAUCAAGGAGUGAUGUUCCUUGAAGUGUAUGCAUGAGAAGGCGAAUUGCCUU [#05 K4 FMN B Same State]	95.3 nM
UUUUGGUACUGAGGAUAUUCGAAGAAAUAUAGUGAUGUUAUAUAAGGAGGAGGAGGGAGGGAGGAAGGAGAAGGCAGAAGAGGAG [ExFMNB.G]	266 nM
UCUGGAGUAUAUGAUACCAGCAGUGAGAGACAGGAAGUAUAGUGAUGUUAUAUGAGAGAAUGCCCUUGGCAGCGUGUGCGGUGGG [SSTheophylB.R]	62.7 nM
GUAUGUGAUGGAAACAUCGCAUACACUGAUACCAGUAUCGAUAGAUACCCUUGGCAGCAGAAAACUGCAAUUGGAGUGAUGUUCC [Ex Theophylline A K4 1]	201 nM
UGUCUUCAGUGAUGUUGAUGACAACACUUAAAGGAUAUGCGAGAGAGCAGAAGGUUAAACAACGCGCAAAUCAAGGAGGGUCUAG [theeternabot_exclusion_KL_FMN_A_30]	174 nM
